# Reference: the supplement of paper PMC12455559
# Test: purified protein yield per well (BCA); higher = higher soluble expression
# Procedure: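 Candidate PET hydrolases were expressed in E. coli C41(DE3) in 2 mL autoinduction cultures in 24-deep-well plates, Ni-bead purified and released by SUMO protease cleavage on an OT-2 robot. Yield per well was measured by BCA; values below 25 ug (0.1 mg/mL) are below the detection threshold. Melting temperature was measured by differential scanning fluorimetry with Sypro Orange, ramping from 25 C at 0.3 C/step.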
row,Sequence,purified protein yield per well
1,AADNPYERGPAPTVSSIEAARGSYAVSQTSVSSLSVSGFGGGTVYYPSSTADGTFGAVVISPGFTAYQSSIAWLGPRLASQGFVVFTIDTNTTLDQPDSRGRQLLAALDYLTKSSSVRGRVDASRLGVMGHSMGGGGSLEAAKSRTSLKAAIPLTGWNADKTWPELRTPTLVVGADGDTVAPVSSHSEPFYQSLPSTLDKAYLELNGATHFTPNSSNTTIAKYSISWLKRFIDNDTRYEQFLCPLPRPSLTIEEYRGNCPHGS [TEP044],< 25 µg
2,AADNPYERGPDPTEQSVTAIRGPFNVAQTDVSRLAVTGFGGGTIYYPTDTSQGTFGAIAISPGFTAYWSSLSWLGPRLASQGFVVFGIETNTTLDQPAQRGQQLLAALDYLTQRSSVRSRVDASRLAVAGHSMGGGGTLEAAKSRTSLKAAIPIAPWNLDKTWPEVRTPTLIIGGELDSIAPVATHSKPFYSSLSNAPEKAYLELDNASHFFPQISNTTMAKYMISWMKRFIDNDTRYDQFLCPPPRAIGDISDYQDTCPHS [TEP031],< 25 µg
3,AANPYERGPAPTTAVLEAARGPFATTSAAIARTSSFGGGTVYYPTDTSQGTFGAVAISPGFSATQSSVAWYGPRLASHGFVVVTINTLSGWDDPDSRARQLLAALDYLTNTHAVRTRIDKTRLGVMGHSMGGGGALRASVSRPSLQAAIPLAPWHNTKNWSSDGVPTLIVGAENDTVAPVNQHAEPFYTSITGAPDKAYLELNNAGHSAPSSEGPNVTVGKFSVAWLKRFIDNDTRYEQFLCPAPRPDTRINEYRDTCPHS [TEP084],< 25 µg
4,AAPAHHAAPAHAAVHHHAPFALRTTVVPRTAVTKFGGGVIYEPRDTGKPVLGAVVITPGFTDTNADEKEYAELVASQGFVAFAIDTLDTGDIPADRATQMLAAVDWLTGSSPVKAEVSPDRVALLGYSFGGGGAMQAAQSRPSIKAVVGMMPFDAPPESDPNATTPAYPRMTTPTLVITGQEDDVADPKYFGKPAYDSIPAGTPKQYLELKGLGHGAGEHMPVPTVRTAVTAFLKRYLDGNSAYGRFICPAPKAVGPISASLSSCPRG [ESM110],< 25 µg
5,AAPATAPSVQRAAANPHERGPAPTEESITAEEGPFEFETIDVPAGSGDGFNQGTIYAPTDLSQGTFGAIAVSPGFVSPEALISWYGPRLASQGFVVMTIETNTLLDQPAARGDQLLAALDYLTGGDSPVRDRVDTGRLAVTGHSMGGGGTLEAARERPGLRAAVPLAPWNLNSDWSAVRTPTMILGAQNDFIAANGLHSEPFYEGLTSAPEKAYAEIANTGHMSFNTPNDVIAKYTIAWMKRYVDDDTRYERFLCPAPSDDPALVEYRDTCPGG [TEP002],< 25 µg
6,AAPHASTAHHHAPFAVRTTVVPRTADAKFGGGVIYEPQDTGKPVLGAVVITPGFTDTNADEKEMAELVASQGFVAFAIDTLDVGDLPDQRATEILAAADYLTGQSAVKSQVSAKDLAFLGYSMGGGGTFQAAQARPSVKAAIGLMPFDIPDANDPNATTPSYPKLTTPSLVVTGQKDDVADPEYFGKPIYDSIPVGTPKQYLELTGLGHGAGEHVPAPTIRVAVTAFLKRYLDGNSAYAKYICPAPKVGGPVSASLSSCPQG [ESM176],< 25 µg
7,AAPPVPQVAASPYERGPAPSEESVTAAEGPFEFETIDVPAGSGDGFNQGTIYAPTDRSQGTFGAIAVSPGFVSPEALVSWYGPRLASQGFVVMTIETNTVLDLPAMRGDQLLAALDYLTGAASPVADRVDPDRLAVMGHSMGGGGTLEAASRRTDLRAAVPLAPWNLTSDWSAVRTPTMILGAQNDFIAANGLHSEPFYEGLTSAPEKAYAELENTGHMSFNTPNDTIAKYTIAWMKRYVDDDARYERFLCPAPSDDPALIEYRDTCPGG [TEP149],< 25 µg
8,AAPVHHAVTRPVAAHHPVTRPVAGHAPPPSTVDQIVVPATADARFGGGTIFAPHGAGQKVLGSVIVTPGFHGRKSDMAVYGTELAAEGFVVFTIDTRERADLPAQRATEMLAAADYLTGRSAVKGEVSPDRVALLGYSMGGGGTLEAAQERPSIKAALTLMPYDYPPAGDPKAVHPAYPELTVPTLIITGQKDATAIPAKFGKPAYDSIPAGTPKQYLQLTGLGHAAGMGKPTATIRAAITAFLERYLDGDTAYAKDICPAPEVGGPISASTSSCPAG [ESM183],< 25 µg
9,AAPVHHAVTRPVAAHHPVTRPVPRPVVAHAPQPPAVDQIVVPATADARFGGGTIFAPRGAGQKVLGSVVVTPGFHGRKSDMAVYGTELAAEGFVVFTIDTRDRADLPDQRATEMLAAADYLTGRSAVKGEVSPDRVALLGYSMGGGGTLQAAQERPSIKAALTLMPYDYPPAGDPKAVHPAYPELTVPTLIITGQKDATAIPAKFGKPAYDSIPAGTPKQYLQLTGLGHAAGMGKPTATIRAAITAFLERYLDGDTAYAKDICPAPKVGGPISASTSSCGTS [ESM119],< 25 µg
10,AAPVHHPVTRPAPAHHQPAAAAVDQIVVPAAADARFGGGTIFAPRGAGQKVLGSVVVTPGFHGRKSDMAVYGTELAAEGFVVFTIDTRDRADLPDQRATEMLAAADYLTGRSAVKGEVSPDRVALLGYSMGGGGTLQAAQERPSIKAALTLMPYDYPPAGDPKAVHPAYPELTVPTLIITGQKDATAIPAKFGKPAYDSIPAGTPKQYLQLTGLGHAAGMGKPTVAIRAAVTAFLERYLDGDTAYAKQICPAPKVGGPISASISSCPAG [ESM150],< 25 µg
11,ADNPFERGPDPSESSIEAYRGAYSVSEQSVSRWVSGFGGGTIHYPTTRSDGTFGAVVVSPGYTGTESSISWLGPRLASQGFVVLTMVTNSIYDYPDSRARQLQAALDYLTSSSSGVADRIDPDRLALMGHSMGGGGTLRAVSENPDIKAAIPMTPWHTDKTWREVTTPTLIFGAENDTVAPHYSHAEPFYDSLPSSLEKVYLELDGASHFAPNYSNTTIAKYSISWLKRFVDDDTRYSQFLCPGPSFWDGDVQTYESTCDF [TEP197],< 25 µg
12,ADNPHERGPDPTESSIEALRGSYAVSERSVSRWVSGFGGGTIYYPTTTSDGDFGAVVISPGYTGTESTVAWLGPRLASQGFVVLTMATNSIYDQPDSRARQLQAALDYLTASSPVADRIDADRLALMGHSMGGGGTLRAVDDNPDIKAAIPMTPWHPQKDWSSVSTPTLIFAAENDSVARHETHAEPFYESFEQDLPKAYLELDGASHFAPNTSNTTIAKYSISWLKRFVDDDTRYTPFLCPGPSTGWLSDVEKYESSCPF [DP076],< 25 µg
13,ADNPYERGPAPTNSSIEASRGPFAVSETSVSSLVSGFGGGTIYYPTSTSAGTFGAVAISPGYTGTQSTMAWLGPRLASQGFVIFTIDTNSVYDQPDSRASQLLAALDYLTQQSTVRTRIDSSRLGVMGHSMGGGGTLRAASQRPSLQAAIPLTGWHTTKNWSSVRVPTLVVGAESDSVAPVSSHSEPFYTSLPSTLDKAYLELNNASHFAPNSSNTTIAKYSISWLKRFIDNDTRYEQFLCPAPGRSTLIEEYRDTCPHS [TEP028],< 25 µg
14,ADNPYERGPAPTNSSIEATRGPFAVSDTRVSSLVSGFGGGTIYYPTSTSSGTFGAVVISPGFTGTQSSIDWLGPRIASQGFVVFTIDTITIYDQPDSRASQLLAALDYLTQRSDVRSRIDASRLGVMGHSMGGGGTLRAAAQRPSLQAAIPLTGWHTTKNWSSVSVPTLVIGAESDSVAPVATHSEPFYTSLPSTLDKAYLELNNASHFAPNLPDTTIAKYSISWLKRFIDNDTRYEQFLCPGPGRSTQVEEYRNTCPNS [TEP025],< 25 µg
15,ADNPYERGPAPTRASIEAPRGPYAVSQTSVSSLLVSGFGGGTIYYPTSTSDGTFGAVVVTPGFTATESSMAWLGPRLASQGFVVFTIDTLTTLDQPDSRGRQMLAALDYLTERSSARTRIDGTRLGVIGHSMGGGGTLEAAKSRPSLKAAIPLTPWNLDKTWPEVTTPTLVVGADGDTVAPVATHAKPFYSTLPSTTDRAYLELNNATHFAPNISNTTIAKYSVSWLKRFIDDDTRYEQFLCPLPEPDRDIEEYRGTCPLGG [TEP162],< 25 µg
16,ADNPYERGPDPSWSSIEALRGPYTVDDTSVSRWVSGFGGGTIYYPDTTRDGDFGAAVISPGYTGTQSSIDWLGPRLASQGFVVLTIDTNSVYDQPDSRADQLQAALDYLTGSSDVADRIDPDRLALMGHSMGGGGTLRAVDDDPSIKAAIPMTPWHIKKNWSSVSTPTLIFGAERDSIAPHETHAEPFYDSLSRSLPKAYLELNNASHFAPNSSNTEIASISIAWLKRFVDDDTRYEQFVCPGPSGYAIEKYESSCPF [TEP128],< 25 µg
17,ADNPYERGPDPTEASIEAPRGPYAVAEKSVSALEATGFGGGTIHYPTSTAEGTFGAVAIAPGYTALQSSVAWLGPRLASQGFVVITIDTHTTVDQPASRGDQLLAALDHLTRRDSVRSRVDSGRLGVMGHSMGGGGSLEAAKDRPSLQAAIPLTGWNLDKTWSEVRVPTMLIGADGDTIAPVATHSQPFYESLPSTLDRAYLELNDAGHFTPNAPDTTIAKYSVSWLKRFIDNDTRYEQFLCPLPRPSRTIDEYRGNCPHTS [TEP143],< 25 µg
18,ADNPYERGPDPTEQLIESARGPFATAQTRVSSLSVTGFGGGVIYYPTDTSQGTFGAVAISPGFTADWTSLDWLGPRLASHGFVVIGIDTITRLDQPDSRGRQLLAALDYLTQRSSVRSRVDASRLAVAGHSMGGGGSLEAAKSRTSLKAAIPLAPWNLDKTWPEVVTPTMIFGGELDTVAPVSTHAIPFYNSLTNAREKAYLEIDNGSHFFPNVSNTLVAKYMISWLKRYVDNDTRYEQFLCPVPDDRGLSDSRGTCPGS [TEP135],< 25 µg
19,ADNPYERGPNPTESSIEATRGHYSVSEESVSSLAPGFGGGTIYYPTTRTDGTFGAVAVVPGYTASESSIEWLGARVASQGFVVFTIDTTTRLDQPAQRGDQLLAALDYLTERSDVADRVDPSRLAVMGHSMGGGGTLEAAKDRPSLKAIIPMTPWNLDKTWGDVEVPMLDFGAEYDSIASPASHAKPFYNTHGGEKMYIELNSAGHFAPNSSNTTIAKYSISWLKRWVDNDTRYTQFLCPTPTSWLYIEESASTCGF [TEP142],< 25 µg
20,ADNPYQRGPDPTERSVTARRGPFAIDEISVNGGIGAGFNRGTIFYPTDRSQGTFGAVAVIPGFLSPESLVRWFGPRLASQGFVVMTLTTNGLTDTPESRSEQLLAALDYLTTRSQVRDRIDPSRLAVMGHSMGGGGSLAAAAKRPTLRAAIPLAPWSLTKNWSNLTVPTLIIGAENDNVAPVAGHSERFYDSMTNVPEKAYLEMAGGNHVDPTAESDLVAKFTISWLKRFVDDDTRYDQFLCPAPRPNRQISEYRDTCPHS [DP029],< 25 µg
21,ADNPYQRGPDPTLAGVAASRGPFATAQMSVAPGNGFNGGTVYYPTDTSAGTWGAVAIVPGYTALFADEEAWMGPWLSSFGFVVIGIETNSRTDYDAARGTQLLAALDYLTQRSPVRDRVDTSRLSVIGHSMGGGGVVYASEHRPSLKAAVALAPFSPSQNMSTDQVPTMVMAGQNDTVVTPSYLDGLYATMPAAAQSDFVQIAGADHVYYTHPQSTEMRLLIPWLKIFVDNDTRYTQFLCPSLADPSGISIYHSKCPYVPPGGTTSGGTTSGGTTTGGTTTGGTTTGGTTTGGTTTGGTVGGGTTSGGTSGGACTATYTTVNTWSGGFQGEVKVTAGGQPISGWTVRWTLGSGQSISQVWNGAVTTSGSDVSVGNVSYNGSLQPSTSTTFGFLGAGAPTDASLSCTSP [ESM049],< 25 µg
